Here are results for 6 molecules from patent US20240279341A1 (Alector, published 2024).

The Kd is the free concentration of one partner at which half of the binding sites on the other are occupied at equilibrium, for simple one-to-one binding.

Assay [1] deals with T1, human MerTK on M2c-differentiated human macrophages (human, UniProt Q12866 21-999).
T1 sequence: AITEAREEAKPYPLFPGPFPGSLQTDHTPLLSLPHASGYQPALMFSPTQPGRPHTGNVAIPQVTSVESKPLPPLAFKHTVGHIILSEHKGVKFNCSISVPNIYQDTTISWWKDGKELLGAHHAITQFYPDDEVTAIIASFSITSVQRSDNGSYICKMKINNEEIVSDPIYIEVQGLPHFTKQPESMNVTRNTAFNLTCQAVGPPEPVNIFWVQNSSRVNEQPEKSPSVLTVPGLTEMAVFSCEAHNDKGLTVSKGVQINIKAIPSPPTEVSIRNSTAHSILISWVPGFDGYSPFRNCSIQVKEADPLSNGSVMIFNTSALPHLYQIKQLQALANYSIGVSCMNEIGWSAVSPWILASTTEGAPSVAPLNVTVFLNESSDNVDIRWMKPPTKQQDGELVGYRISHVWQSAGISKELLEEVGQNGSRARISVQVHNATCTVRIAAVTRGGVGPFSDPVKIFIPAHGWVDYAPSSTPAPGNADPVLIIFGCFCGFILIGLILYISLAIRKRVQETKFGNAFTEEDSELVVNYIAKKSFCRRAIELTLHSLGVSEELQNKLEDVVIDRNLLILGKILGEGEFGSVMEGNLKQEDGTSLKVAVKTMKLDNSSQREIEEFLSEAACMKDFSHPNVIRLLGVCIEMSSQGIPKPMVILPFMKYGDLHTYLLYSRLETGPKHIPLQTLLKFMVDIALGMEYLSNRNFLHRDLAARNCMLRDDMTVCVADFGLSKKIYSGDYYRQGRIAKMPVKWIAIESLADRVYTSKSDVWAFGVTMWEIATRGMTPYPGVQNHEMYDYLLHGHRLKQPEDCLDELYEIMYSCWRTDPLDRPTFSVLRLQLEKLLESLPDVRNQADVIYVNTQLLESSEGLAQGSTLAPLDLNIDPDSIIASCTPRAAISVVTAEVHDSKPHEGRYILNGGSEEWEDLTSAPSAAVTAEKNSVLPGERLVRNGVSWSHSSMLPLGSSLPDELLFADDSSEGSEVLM
The experiment in a line: cell-based or functional assay.

Assay [2] concerns the target T2, recombinant human MerTK extracellular domain (human, UniProt Q12866 21-505).
T2 construct: also called huMerTK; not shown: PolyHis tag or TEVS/Thrombin/murine IgG2a Fc tag (a DDDDK-tagged commercial protein is also mentioned); which form was t
T2 sequence: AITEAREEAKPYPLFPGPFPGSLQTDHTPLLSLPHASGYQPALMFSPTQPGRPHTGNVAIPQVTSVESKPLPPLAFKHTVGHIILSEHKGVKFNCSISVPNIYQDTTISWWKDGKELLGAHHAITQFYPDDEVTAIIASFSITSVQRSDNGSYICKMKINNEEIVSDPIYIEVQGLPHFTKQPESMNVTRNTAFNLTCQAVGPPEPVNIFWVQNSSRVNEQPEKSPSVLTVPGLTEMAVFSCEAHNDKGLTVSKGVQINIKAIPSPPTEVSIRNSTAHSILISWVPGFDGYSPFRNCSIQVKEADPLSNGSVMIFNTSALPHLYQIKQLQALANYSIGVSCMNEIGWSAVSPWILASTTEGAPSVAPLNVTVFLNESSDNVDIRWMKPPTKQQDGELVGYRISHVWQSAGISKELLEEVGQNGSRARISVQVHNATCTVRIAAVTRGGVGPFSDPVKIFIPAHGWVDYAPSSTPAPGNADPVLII
The experiment in a line: SPR (Carterra LSA), antibody immobilized, MerTK ECD as analyte; estimate, fits not ideal for a 1:1 model. The procedure: (§1) Binding kinetics of bispecific anti-MerTK:anti-PDL1 antibodies of the present disclosure to human, cyno, and murine MerTK were evaluated using a Carterra LSA instrument. […] A HC30 sensor chip (Carterra) was activated using the single channel flow cell with a 7-minute injection of a 1:1:1 mixture of 100 mM MES pH 5.5, 100 mM sulfo-NHS, 400 mM EDC (all reconstituted in MES pH 5.5; 100 μl of each mixed in vial immediately before running assay). After switching to the multi-channel array flow cell, the antibodies were injected over the activated chip in a 96-spot array for 15 minutes. A duplicate injection of the antibodies on a second block of the chip was spotted as before. The remaining unconjugated active groups on the chip were then blocked by injecting 1M Ethanolamine pH 8.5 (Carterra) for 7 minutes using the single channel flow cell.
(§2) After priming with running buffer (HBS-TE, Carterra) with 0.5 mg/ml BSA (Sigma), the immobilized anti-MerTK antibodies were tested for their ability to bind to several forms of recombinant MerTK extracellular domain, including that of human, cynomolgus, and mouse orthologs as described above. Estimates of affinity were generated by injecting each analyte over the entire antibody array using the single channel flow cell. […] Dissociation was followed for 300 seconds before regenerating after each injection with 2×30 seconds of 10 mM Glycine pH2.5. Three buffer blanks were run between each series (one species per series). After all concentrations of all three species of MerTK were injected, a duplicate set of injections was performed, so that each concentration for all three species was injected in widely spaced duplicates. Data were processed and analyzed using NextGenKIT high-throughput kinetics analysis software (Carterra).

In assay [3] the target is T3, recombinant cynomolgus MerTK extracellular domain (cynomolgus monkey, UniProt Q12866 21-505 (human entry)).
T3 construct: also called cynoMerTK; cyno MerTK; not shown: PolyHis tag or TEVS/Thrombin/murine IgG2a Fc tag
T3 chain: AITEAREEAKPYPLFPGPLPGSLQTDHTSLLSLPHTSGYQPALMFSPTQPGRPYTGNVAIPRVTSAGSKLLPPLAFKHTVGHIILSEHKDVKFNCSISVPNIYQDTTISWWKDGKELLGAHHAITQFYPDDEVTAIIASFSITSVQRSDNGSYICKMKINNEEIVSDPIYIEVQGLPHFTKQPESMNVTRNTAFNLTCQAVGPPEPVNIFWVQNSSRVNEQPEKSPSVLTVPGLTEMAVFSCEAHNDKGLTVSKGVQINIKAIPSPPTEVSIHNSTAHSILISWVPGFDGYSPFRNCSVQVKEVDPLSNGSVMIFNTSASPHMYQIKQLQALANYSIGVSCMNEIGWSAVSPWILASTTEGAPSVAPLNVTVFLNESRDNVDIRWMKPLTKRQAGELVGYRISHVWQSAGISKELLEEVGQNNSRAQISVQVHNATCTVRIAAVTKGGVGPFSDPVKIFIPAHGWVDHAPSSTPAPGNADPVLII
The assay is described as above. The procedure: as §1, §2

B1: monovalent anti-MerTK antibody MTK-16.2 (antibody, V domains shown)
VH: QVQLVQSGSELKKPGASVKVSCKASGYTFTNHGMNWVRQAPGQGLEWMGWINTYTGEPTYADDFKGRFVFSLDTSVSTAYLQISSLKAEDTAVYYCARKGVTAARYFDYWGQGTLVTVSS
VL: DIQMTQSPSSLSASVGDRVTITCRASQNVRTAVAWYQQKPGKAPKRLIYLASNRHTGVPSRFSGSGSGTEFTLTISNLQPEDFATYYCLQHWNYPLTFGGGTKLEIK
As for B1, in assay [1], the “Average IC50 (nM) in the presence of huGas6 (huGas6-mediated pAKT reducing activity)” value was 15.3 nM. In addition, the Kd in assay [2] was 50 nM; in assay [3] it was 60 nM.

B2: bispecific anti-MerTK MTK-16.2:anti-PDL1 antibody (bispecific antibody, V domains shown)
VH 1: QVQLVQSGSELKKPGASVKVSCKASGYTFTNHGMNWVRQAPGQGLEWMGWINTYTGEPTYADDFKGRFVFSLDTSVSTAYLQISSLKAEDTAVYYCARKGVTAARYFDYWGQGTLVTVSS
VL 1: DIQMTQSPSSLSASVGDRVTITCRASQNVRTAVAWYQQKPGKAPKRLIYLASNRHTGVPSRFSGSGSGTEFTLTISNLQPEDFATYYCLQHWNYPLTFGGGTKLEIK
VH 2: not shown
VL 2: not shown
For the molecule B2, the “Average IC50 (nM) in the presence of huGas6 (huGas6-mediated pAKT reducing activity)” value in assay [1] is 12.3 nM. Also, the Kd in assay [2] and in assay [3] was 30 nM each time.

B3: bivalent anti-MerTK antibody MTK-16.2 (full IgG) (antibody, V domains shown)
VH: QVQLVQSGSELKKPGASVKVSCKASGYTFTNHGMNWVRQAPGQGLEWMGWINTYTGEPTYADDFKGRFVFSLDTSVSTAYLQISSLKAEDTAVYYCARKGVTAARYFDYWGQGTLVTVSS
VL: DIQMTQSPSSLSASVGDRVTITCRASQNVRTAVAWYQQKPGKAPKRLIYLASNRHTGVPSRFSGSGSGTEFTLTISNLQPEDFATYYCLQHWNYPLTFGGGTKLEIKR
Regarding B3, the “Average IC50 (nM) in the presence of huGas6 (huGas6-mediated pAKT reducing activity)” value in assay [1] was found to be 3.22 nM. For the same molecule, the Kd is 50 nM in assay [2] and 60 nM in assay [3].

B4: monovalent anti-MerTK antibody MTK-33.11 (antibody, V domains shown)
VH: QVQLVQSGAEVKKPGASVKVSCKASGYTFTSYWMHWVRQAPGQGLEWIGVIDPSDNYINYNQKFQGRVTMTRDTSTSTVYMELSSLRSEDTAVYYCAREAWTRGYFDYWGQGTLVTVSS
VL: DIQMTQSPSSLSASVGDRVTITCQASRSVRNTVAWYQQKPGKAPKLLIYYASNRYTGVPSRFSGSGSGTDFTFTISSLQPEDIATYYCQQDYRSPFTFGQGTKLEIK
Consider B4, for which the “Average IC50 (nM) in the presence of huGas6 (huGas6-mediated pAKT reducing activity)” value in assay [1] amounted to 17.9 nM. Also, the Kd in assay [2] is 2 nM; in assay [3] it was 3 nM.

B5: bivalent anti-MerTK antibody MTK-33.11 (full IgG) (antibody, V domains shown)
VH: QVQLVQSGAEVKKPGASVKVSCKASGYTFTSYWMHWVRQAPGQGLEWIGVIDPSDNYINYNQKFQGRVTMTRDTSTSTVYMELSSLRSEDTAVYYCAREAWTRGYFDYWGQGTLVTVSS
VL: DIQMTQSPSSLSASVGDRVTITCQASRSVRNTVAWYQQKPGKAPKLLIYYASNRYTGVPSRFSGSGSGTDFTFTISSLQPEDIATYYCQQDYRSPFTFGQGTKLEIKR
With B5, the “Average IC50 (nM) in the presence of huGas6 (huGas6-mediated pAKT reducing activity)” value in assay [1] is 1.25 nM. Further, the Kd in assay [2] and in assay [3] was 2 nM throughout.

B6: bispecific anti-MerTK MTK-33.11:anti-PDL1 antibody (bispecific antibody, V domains shown)
VH 1: QVQLVQSGAEVKKPGASVKVSCKASGYTFTSYWMHWVRQAPGQGLEWIGVIDPSDNYINYNQKFQGRVTMTRDTSTSTVYMELSSLRSEDTAVYYCAREAWTRGYFDYWGQGTLVTVSS
VL 1: DIQMTQSPSSLSASVGDRVTITCQASRSVRNTVAWYQQKPGKAPKLLIYYASNRYTGVPSRFSGSGSGTDFTFTISSLQPEDIATYYCQQDYRSPFTFGQGTKLEIK
VH 2: not shown
VL 2: not shown
For the molecule B6, the “Average IC50 (nM) in the presence of huGas6 (huGas6-mediated pAKT reducing activity)” value in assay [1] is 9.03 nM. Further, the Kd in assay [2] and in assay [3] was 2 nM each time.
